Measurements published in IntAct's records for PubMed 32296183.

B1: Dolichol kinase (Homo sapiens), Q9UPQ8 (parent)
chain: MTRECPSPAPGPGAPLSGSVLAEAAVVFAVVLSIHATVWDRYSWCAVALAVQAFYVQYKWDRLLQQGSAVFQFRMSANSGLLPASMVMPLLGLVMKERCQTAGNPFFERFGIVVAATGMAVALFSSVLALGITRPVPTNTCVILGLAGGVIIYIMKHSLSVGEVIEVLEVLLIFVYLNMILLYLLPRCFTPGEALLVLGGISFVLNQLIKRSLTLVESQGDPVDFFLLVVVVGMVLMGIFFSTLFVFMDSGTWASSIFFHLMTCVLSLGVVLPWLHRLIRRNPLLWLLQFLFQTDTRIYLLAYWSLLATLACLVVLYQNAKRSSSESKKHQAPTIARKYFHLIVVATYIPGIIFDRPLLYVAATVCLAVFIFLEYVRYFRIKPLGHTLRSFLSLFLDERDSGPLILTHIYLLLGMSLPIWLIPRPCTQKGSLGGARALVPYAGVLAVGVGDTVASIFGSTMGEIRWPGTKKTFEGTMTSIFAQIISVALILIFDSGVDLNYSYAWILGSISTVSLLEAYTTQIDNLLLPLYLLILLMA

Variants of: B1
Settings: with kca10_human KCNA10, Q16322
kca10_human KCNA10, Q16322, sequence (Q16322 whole entry): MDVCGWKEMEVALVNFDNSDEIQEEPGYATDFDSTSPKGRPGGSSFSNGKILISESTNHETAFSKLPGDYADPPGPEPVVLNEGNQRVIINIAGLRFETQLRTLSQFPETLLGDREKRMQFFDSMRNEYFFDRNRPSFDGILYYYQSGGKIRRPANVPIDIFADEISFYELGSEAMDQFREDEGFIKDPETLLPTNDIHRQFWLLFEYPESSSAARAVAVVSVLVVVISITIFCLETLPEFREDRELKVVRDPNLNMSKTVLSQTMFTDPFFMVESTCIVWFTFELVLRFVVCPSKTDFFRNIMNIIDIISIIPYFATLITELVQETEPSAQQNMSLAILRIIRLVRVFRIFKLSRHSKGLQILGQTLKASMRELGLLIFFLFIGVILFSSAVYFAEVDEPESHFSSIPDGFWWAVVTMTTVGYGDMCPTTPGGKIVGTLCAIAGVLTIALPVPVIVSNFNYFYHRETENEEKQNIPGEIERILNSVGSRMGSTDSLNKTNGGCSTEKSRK

| Variant | effect of a mutation on the interaction |
| --- | --- |
| MTRECPSPAPGPGAPLSGSVLAEAAVVFAVVLSIHATVWDRYSWCAVALAVQAFYVQYKWDRLLQQGSAVFQFRMSANSGLLPASMVMPLLGLVMKERCQTAGNPFFERFGIVVAATGMAVALFSSVLALGITRPVPTNTCVILGLAGGVIIYIMKHSLSVGEVIEVLEVLLIFVYLNMILLYLLPRCFTPGEALLVLGGISFVLNQLIKRSLTLVESQGDPVDFFLLVVVVGMVLMGIFFSTLFVFMDSGTWASSIFFHLMTCVLSLGVVLPWLHRLIRRNPLLWLLQFLFQTDTRIYLLAYWSLLATLACLVVLYQNAKRSSSESKKHQAPTIARKYFHLIVVATYIPGIIFDRPLLYVAATVCLAVFIFLEYVRYFRIKPLGHTLRSFLSLFLDERDSGPLILTHIYLLLGMSLPIWLIPRPCTQKGSLGGARALVPSAGVLAVGVGDTVASIFGSTMGEIRWPGTKKTFEGTMTSIFAQIISVALILIFDSGVDLNYSYAWILGSISTVSLLEAYTTQIDNLLLPLYLLILLMA [Y441S] | disrupting interaction strength |

Variants of: B1
Settings: with kcna6_human KCNA6, P17658
kcna6_human KCNA6, P17658, sequence (P17658 whole entry): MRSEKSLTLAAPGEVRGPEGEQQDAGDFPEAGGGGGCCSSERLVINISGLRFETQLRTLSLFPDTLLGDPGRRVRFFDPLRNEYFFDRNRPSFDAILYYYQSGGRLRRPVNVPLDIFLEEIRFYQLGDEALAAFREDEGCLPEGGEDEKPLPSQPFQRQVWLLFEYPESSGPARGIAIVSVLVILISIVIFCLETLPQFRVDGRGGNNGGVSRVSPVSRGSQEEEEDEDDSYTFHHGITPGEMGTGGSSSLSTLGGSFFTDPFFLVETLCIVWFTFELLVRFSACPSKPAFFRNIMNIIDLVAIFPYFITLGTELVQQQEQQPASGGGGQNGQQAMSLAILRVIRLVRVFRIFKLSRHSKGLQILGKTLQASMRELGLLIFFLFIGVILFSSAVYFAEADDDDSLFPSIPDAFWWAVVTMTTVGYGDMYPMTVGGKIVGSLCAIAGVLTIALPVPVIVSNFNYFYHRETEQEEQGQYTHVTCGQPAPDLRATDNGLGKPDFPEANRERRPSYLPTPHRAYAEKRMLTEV

| Variant | effect of a mutation on the interaction |
| --- | --- |
| MTRECPSPAPGPGAPLSGSVLAEAAVVFAVVLSIHATVWDRYSWCAVALAVQAFYVQYKWDRLLQQGSAVFQFRMSANSGLLPASMVMPLLGLVMKERCQTAGNPFFERFGIVVAATGMAVALFSSVLALGITRPVPTNTCVILGLAGGVIIYIMKHSLSVGEVIEVLEVLLIFVYLNMILLYLLPRCFTPGEALLVLGGISFVLNQLIKRSLTLVESQGDPVDFFLLVVVVGMVLMGIFFSTLFVFMDSGTWASSIFFHLMTCVLSLGVVLPWLHRLIRRNPLLWLLQFLFQTDTRIYLLAYWSLLATLACLVVLYQNAKRSSSESKKHQAPTIARKYFHLIVVATYIPGIIFDRPLLYVAATVCLAVFIFLEYVRYFRIKPLGHTLRSFLSLFLDERDSGPLILTHIYLLLGMSLPIWLIPRPCTQKGSLGGARALVPSAGVLAVGVGDTVASIFGSTMGEIRWPGTKKTFEGTMTSIFAQIISVALILIFDSGVDLNYSYAWILGSISTVSLLEAYTTQIDNLLLPLYLLILLMA [Y441S] | disrupting interaction strength |

Variants of: B1
Settings: with eda_human EDA

| Variant | effect of a mutation on the interaction |
| --- | --- |
| MTRECPSPAPGPGAPLSGSVLAEAAVVFAVVLSIHATVWDRYSWCAVALAVQAFYVQYKWDRLLQQGSAVFQFRMSANSGLLPASMVMPLLGLVMKERCQTAGNPFFERFGIVVAATGMAVALFSSVLALGITRPVPTNTCVILGLAGGVIIYIMKHSLSVGEVIEVLEVLLIFVYLNMILLYLLPRCFTPGEALLVLGGISFVLNQLIKRSLTLVESQGDPVDFFLLVVVVGMVLMGIFFSTLFVFMDSGTWASSIFFHLMTCVLSLGVVLPWLHRLIRRNPLLWLLQFLFQTDTRIYLLAYWSLLATLACLVVLYQNAKRSSSESKKHQAPTIARKYFHLIVVATYIPGIIFDRPLLYVAATVCLAVFIFLEYVRYFRIKPLGHTLRSFLSLFLDERDSGPLILTHIYLLLGMSLPIWLIPRPCTQKGSLGGARALVPSAGVLAVGVGDTVASIFGSTMGEIRWPGTKKTFEGTMTSIFAQIISVALILIFDSGVDLNYSYAWILGSISTVSLLEAYTTQIDNLLLPLYLLILLMA [Y441S] | disrupting interaction strength |

Variants of: B1
Settings: with apbp2_human APPBP2, Q92624
apbp2_human APPBP2, Q92624, sequence (Q92624 whole entry): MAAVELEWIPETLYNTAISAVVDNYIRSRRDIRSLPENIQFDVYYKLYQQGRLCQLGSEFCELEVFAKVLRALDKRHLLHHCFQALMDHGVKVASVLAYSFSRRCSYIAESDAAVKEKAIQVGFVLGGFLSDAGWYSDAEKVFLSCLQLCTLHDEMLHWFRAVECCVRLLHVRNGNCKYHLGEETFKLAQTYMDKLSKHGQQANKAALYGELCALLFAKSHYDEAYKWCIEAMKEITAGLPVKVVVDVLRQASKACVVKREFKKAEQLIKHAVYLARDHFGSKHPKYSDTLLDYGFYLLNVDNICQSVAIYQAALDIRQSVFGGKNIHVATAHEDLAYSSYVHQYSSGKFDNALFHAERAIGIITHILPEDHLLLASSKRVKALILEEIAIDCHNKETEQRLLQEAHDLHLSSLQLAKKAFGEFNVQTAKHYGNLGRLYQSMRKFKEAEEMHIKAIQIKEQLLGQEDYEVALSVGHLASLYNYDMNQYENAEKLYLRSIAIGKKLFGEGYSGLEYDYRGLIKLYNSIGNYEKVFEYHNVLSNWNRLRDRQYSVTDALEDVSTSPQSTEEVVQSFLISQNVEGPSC

| Variant | effect of a mutation on the interaction |
| --- | --- |
| MTRECPSPAPGPGAPLSGSVLAEAAVVFAVVLSIHATVWDRYSWCAVALAVQAFYVQYKWDRLLQQGSAVFQFRMSANSGLLPASMVMPLLGLVMKERCQTAGNPFFERFGIVVAATGMAVALFSSVLALGITRPVPTNTCVILGLAGGVIIYIMKHSLSVGEVIEVLEVLLIFVYLNMILLYLLPRCFTPGEALLVLGGISFVLNQLIKRSLTLVESQGDPVDFFLLVVVVGMVLMGIFFSTLFVFMDSGTWASSIFFHLMTCVLSLGVVLPWLHRLIRRNPLLWLLQFLFQTDTRIYLLAYWSLLATLACLVVLYQNAKRSSSESKKHQAPTIARKYFHLIVVATYIPGIIFDRPLLYVAATVCLAVFIFLEYVRYFRIKPLGHTLRSFLSLFLDERDSGPLILTHIYLLLGMSLPIWLIPRPCTQKGSLGGARALVPSAGVLAVGVGDTVASIFGSTMGEIRWPGTKKTFEGTMTSIFAQIISVALILIFDSGVDLNYSYAWILGSISTVSLLEAYTTQIDNLLLPLYLLILLMA [Y441S] | disrupting interaction strength |

Variants of: B1
Settings: with kcna1_human KCNA1, Q09470
kcna1_human KCNA1, Q09470, sequence (Q09470 whole entry): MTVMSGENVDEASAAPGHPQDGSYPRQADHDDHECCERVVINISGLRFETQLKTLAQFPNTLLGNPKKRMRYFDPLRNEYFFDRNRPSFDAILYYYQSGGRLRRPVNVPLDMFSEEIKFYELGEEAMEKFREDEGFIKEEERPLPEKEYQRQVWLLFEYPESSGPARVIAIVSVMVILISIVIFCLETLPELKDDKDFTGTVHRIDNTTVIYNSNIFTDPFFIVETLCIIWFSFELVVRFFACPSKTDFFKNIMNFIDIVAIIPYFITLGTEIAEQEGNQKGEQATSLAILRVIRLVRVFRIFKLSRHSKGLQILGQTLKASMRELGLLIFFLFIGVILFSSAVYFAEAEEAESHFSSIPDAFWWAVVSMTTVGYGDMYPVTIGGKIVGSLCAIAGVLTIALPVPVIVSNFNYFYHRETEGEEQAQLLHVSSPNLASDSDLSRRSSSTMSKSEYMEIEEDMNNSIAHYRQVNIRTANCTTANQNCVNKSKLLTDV

| Variant | effect of a mutation on the interaction |
| --- | --- |
| MTRECPSPAPGPGAPLSGSVLAEAAVVFAVVLSIHATVWDRYSWCAVALAVQAFYVQYKWDRLLQQGSAVFQFRMSANSGLLPASMVMPLLGLVMKERCQTAGNPFFERFGIVVAATGMAVALFSSVLALGITRPVPTNTCVILGLAGGVIIYIMKHSLSVGEVIEVLEVLLIFVYLNMILLYLLPRCFTPGEALLVLGGISFVLNQLIKRSLTLVESQGDPVDFFLLVVVVGMVLMGIFFSTLFVFMDSGTWASSIFFHLMTCVLSLGVVLPWLHRLIRRNPLLWLLQFLFQTDTRIYLLAYWSLLATLACLVVLYQNAKRSSSESKKHQAPTIARKYFHLIVVATYIPGIIFDRPLLYVAATVCLAVFIFLEYVRYFRIKPLGHTLRSFLSLFLDERDSGPLILTHIYLLLGMSLPIWLIPRPCTQKGSLGGARALVPSAGVLAVGVGDTVASIFGSTMGEIRWPGTKKTFEGTMTSIFAQIISVALILIFDSGVDLNYSYAWILGSISTVSLLEAYTTQIDNLLLPLYLLILLMA [Y441S] | disrupting interaction strength |

Variants of: B1
Settings: with ylat2_human SLC7A6, Q92536
ylat2_human SLC7A6, Q92536, sequence (Q92536 whole entry): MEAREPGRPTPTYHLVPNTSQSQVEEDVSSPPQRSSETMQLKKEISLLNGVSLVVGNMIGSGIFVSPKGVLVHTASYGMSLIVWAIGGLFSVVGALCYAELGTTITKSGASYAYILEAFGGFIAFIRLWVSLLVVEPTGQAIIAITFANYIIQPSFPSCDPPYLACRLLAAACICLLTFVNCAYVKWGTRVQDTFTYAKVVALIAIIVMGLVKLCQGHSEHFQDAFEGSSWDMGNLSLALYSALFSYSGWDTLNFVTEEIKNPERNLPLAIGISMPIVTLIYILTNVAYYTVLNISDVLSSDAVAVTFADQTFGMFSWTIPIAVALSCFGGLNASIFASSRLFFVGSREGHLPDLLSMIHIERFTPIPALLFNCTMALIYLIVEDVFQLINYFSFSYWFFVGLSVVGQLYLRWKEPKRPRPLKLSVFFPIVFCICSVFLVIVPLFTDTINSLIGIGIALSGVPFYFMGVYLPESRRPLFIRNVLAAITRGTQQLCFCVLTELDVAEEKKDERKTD

| Variant | effect of a mutation on the interaction |
| --- | --- |
| MTRECPSPAPGPGAPLSGSVLAEAAVVFAVVLSIHATVWDRYSWCAVALAVQAFYVQYKWDRLLQQGSAVFQFRMSANSGLLPASMVMPLLGLVMKERCQTAGNPFFERFGIVVAATGMAVALFSSVLALGITRPVPTNTCVILGLAGGVIIYIMKHSLSVGEVIEVLEVLLIFVYLNMILLYLLPRCFTPGEALLVLGGISFVLNQLIKRSLTLVESQGDPVDFFLLVVVVGMVLMGIFFSTLFVFMDSGTWASSIFFHLMTCVLSLGVVLPWLHRLIRRNPLLWLLQFLFQTDTRIYLLAYWSLLATLACLVVLYQNAKRSSSESKKHQAPTIARKYFHLIVVATYIPGIIFDRPLLYVAATVCLAVFIFLEYVRYFRIKPLGHTLRSFLSLFLDERDSGPLILTHIYLLLGMSLPIWLIPRPCTQKGSLGGARALVPSAGVLAVGVGDTVASIFGSTMGEIRWPGTKKTFEGTMTSIFAQIISVALILIFDSGVDLNYSYAWILGSISTVSLLEAYTTQIDNLLLPLYLLILLMA [Y441S] | with no effect |
